# Measured values taken from patent publication US20100135951.
# Test system: Ser90 mutant DDX3
substance,measurement,value
GSK3,phosphorylation (32P incorporation),GSK3 fails to phosphorylate DDX3 with a point mutation at Ser90
